{"source": "patent US20250276081A1", "about": "“Mucin-Active Proteases and Methods of Use” (priority 2022, published 2025)", "key": {"[1]": {"target": "T1, cell surface mucins (CD43) on mixed K562^±HER2 cells (Homo sapiens, UniProt P16150)", "T1 construct": "endogenous in cells; host or cells: K562 and K562^HER2 (HER2 retrovirally transduced; CD43 endogenous)", "T1 sequence (P16150 20-400)": "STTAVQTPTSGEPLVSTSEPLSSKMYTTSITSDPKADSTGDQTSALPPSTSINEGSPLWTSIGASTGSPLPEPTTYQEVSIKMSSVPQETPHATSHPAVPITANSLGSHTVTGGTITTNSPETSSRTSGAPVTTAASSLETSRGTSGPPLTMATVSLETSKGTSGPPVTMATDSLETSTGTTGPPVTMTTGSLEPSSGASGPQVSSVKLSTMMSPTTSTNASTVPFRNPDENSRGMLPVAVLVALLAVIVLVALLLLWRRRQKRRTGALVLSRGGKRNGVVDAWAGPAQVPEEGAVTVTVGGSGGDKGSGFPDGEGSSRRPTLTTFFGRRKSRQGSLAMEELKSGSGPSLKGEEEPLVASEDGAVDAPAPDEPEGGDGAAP", "experiment": "K562 mixed cell CD43 cleavage assay", "type": "cell-based", "conditions": "1 nM, overnight", "method": "K562 mixed cell CD43 cleavage assay. 2.5×10^5 K562 and K562^HER2 cells were allocated per well to a 96-well ultra-low attachment round bottom plate in 150 μL of complete media. 50 μL of mucinases in PBS were added to wells and the plate was incubated (overnight unless stated otherwise) at 37° C. Cells were washed twice with cold FACS buffer with 2 mM EDTA, once with cold FACS buffer, and stained with Alexa Fluor 488 anti-human CD340 (erbB2/HER-2) antibody (24D2 clone) (BioLegend) and Alexa Fluor 647 CD43/sialophorin antibody (MEM^−59 clone) (Novus Biologicals) in FACS buffer supplemented with 0.1% benzonase on ice protected from light. Cells were washed three times with cold FACS buffer with 2 mM EDTA and stained with 1 μM Sytox AADvanced (Thermo Fisher Scientific) or 1 μM Sytox Blue in FACS buffer with 2 mM EDTA for 5 min on ice prior to analysis using a BD Accuri C6 plus or MACSQuant Analyzer 10 Flow Cytometer (Miltenyi Biotec). Samples were compensated using single-stained controls in FlowJo v. 10.0. Unstained and PBS-treated samples were used to define 0% and 100% cell surface CD43, respectively, and each sample was normalized to percent CD43 within each replicate. Using GraphPad Prism 9, replicates were fitted to inhibitor concentration vs normalized response."}, "[2]": {"tested_on": "Siglec-7 ligand (K562, CCRF-CEM, CCRF-HSB-2 cells)", "experiment": "Siglec-7-Fc flow cytometry of leukemia cell lines", "type": "cell-based", "conditions": "50 nM StcE, 1 h", "method": "CD43 and Siglec-7-Fc flow cytometry. 1×10^6 K562, CCRF-CEM, or CCRF-HSB-2 cells growing in log phase were harvested, resuspended in 1 mL of serum-free RPMI, and treated with either vehicle or 50 nM StcE for 1 h. Cells were subsequently spun down at 600× g and washed twice in PBS. Cells were then resuspended in FACS buffer (0.5% BSA in PBS) at 1×10^6 cells/mL and aliquoted into a V-bottom 96-well plate (Corning) at 1×10^5 cells/well. For staining, a precomplex solution of 1 μg/mL Siglec-7-Fc (R&D Systems) and 1 μg/mL Alexa Fluor 488-antihFc was made up in FACS buffer and incubated on ice for 1 h. Alexa Fluor 647 CD43/sialophorin antibody (MEM-59 clone) (Novus Biologicals) was subsequently added to the precomplex solution prior to staining. Cells were stained in 100 μL of staining solution for 30 min, washed twice with FACS buffer, and analyzed by flow cytometry using a BD Accuri C6 plus."}, "[3]": {"experiment": "In vivo biodistribution of IRdye 800CW-labeled StcE", "conditions": "0.25 mg/kg I.P."}}, "data": [{"substance": "StcE: secreted protease of C1 esterase inhibitor, zinc metalloprotease pan mucinase from E. coli O157:H7; SEQ ID NO:1", "values": [{"measurement": "Removal of cell surface mucins on HER2- cells", "setting": "[1]", "value": "complete removal"}, {"measurement": "Removal of cell surface mucins on HER2^+ cells", "setting": "[1]", "value": "complete removal"}, {"measurement": "Siglec-7 ligand residency", "setting": "[2]", "value": "loss of cell surface CD43 and overall Siglec-7 ligand residency"}, {"measurement": "Time remaining in circulation", "setting": "[3]", "value": "at least 20 hours"}]}]}
